{"source": "paper PMC7176140", "about": "“Thermal stability analyses of human PERIOD-2 C-terminal domain using dynamic light scattering and circular dichroism” (PLoS ONE, 2020)", "proteins": {"B1": {"name": "human PERIOD-2 C-terminal domain (recombinant hPER2c, residues 1130 to 1252) (domain or fragment, UniProt O15055 1130-1252, looked up)", "chain": "CVLQDPIWLLMADADSSVMMTYQLPSRNLEAVLKEDREKLKLLQKLQPRFTESQKQELREVHQWMQTGGLPAAIDVAECVYCENKEKGNICIPYEEDIPSLGLSEVSDTKEDENGSPLNHRIE", "notes": "C-terminal domain of human PER2 (PERIOD-2), residues 1130 to 1252; Elutes from SEC as an aggregated form, 40mer, 20mer and dimer; The authors conclude that disulfide bonds stabilise the dimer; No tag removal is described; also called human PER2c; not shown: His tag (from the vector pCold I)"}}, "molecular_target": "the molecule itself", "test": "SEC; analytical Superdex 200 Increase 10/300 GL; hPER2c dimer fraction treated with 20mM DTT for 36hrs; buffer 20mM Tris-base pH7.5, 50mM NaCl, 20mM DTT; calibrated with molecular weight standards"}
{"protein": "B1", "values": [{"measurement": "stoichiometry N", "value": 6}]}
